Assay results taken from FireProtDB (doi:10.1021/bi9815243).

Conditions: whole UniProt chain shown; for Tm / unfolding enthalpy (van 't Hoff): Thermal; for denaturant m value / denaturant midpoint (higher = more stable) / unfolding free energy: 25 °C, Urea
[1] = Kitasatospora aureofaciens, pH 2, CD, MOPS 30 mM, transition: 2, reversible: Yes
[2] = Kitasatospora aureofaciens, pH 7, CD, MOPS 30 mM, reversible: yes (>95%)
[3] = Kitasatospora aureofaciens, pH 7, CD, MOPS 30 mM, transition: 2, reversible: Yes
[4] = Aspergillus oryzae (strain ATCC 42149 / RIB 40), pH 2.7, CD, glycine 30 mM, reversible: yes (>95%)
[5] = Aspergillus oryzae (strain ATCC 42149 / RIB 40), pH 2.7, Fluorescence, glycine 30 mM, transition: 2, reversible: Yes
[6] = Aspergillus oryzae (strain ATCC 42149 / RIB 40), pH 7, CD, MOPS 30 mM, reversible: yes (>95%)
[7] = Aspergillus oryzae (strain ATCC 42149 / RIB 40), pH 7, Fluorescence, MOPS 30 mM, transition: 2, reversible: Yes
[8] = Aspergillus oryzae (strain ATCC 42149 / RIB 40), pH 7, CD, MOPS 30 mM, transition: 2, reversible: Yes

B1: Guanyl-specific ribonuclease Sa wild type, P05798 (protein)
chain: DVSGTVCLSALPPEATDTLNLIASDGPFPYSQDGVVFQNRESVLPTQSYGYYHEYTVITPGARTRGTRRIITGEATQEDYYTGDHYATFSLIDQTC
Tm [1]: 28 °C | unfolding enthalpy (van 't Hoff) [1]: 58.8 kcal/mol | Tm [2]: 48.4 °C | unfolding enthalpy (van 't Hoff) [2]: 92.4 kcal/mol | Tm [3]: 48.4 °C | unfolding enthalpy (van 't Hoff) [3]: 92.4 kcal/mol

B2: Guanyl-specific ribonuclease T1 wild type, P00651 (protein)
chain: MMYSKLLTLTTLLLPTALALPSLVERACDYTCGSNCYSSSDVSTAQAAGYQLHEDGETVGSNSYPHKYNNYEGFDFSVSSPYYEWPILSSGDVYSGGSPGADRVVFNENNQLAGVITHTGASGNNFVECT
denaturant m value [4]: 1.64 kcal/mol/M | denaturant midpoint (higher = more stable) [4]: 3.75 M | unfolding free energy [4]: 6.13 kcal/mol | denaturant m value [5]: 1.64 kcal/mol/M | denaturant midpoint (higher = more stable) [5]: 3.75 M | unfolding free energy [5]: 6.13 kcal/mol | denaturant m value [6]: 1.17 kcal/mol/M | denaturant midpoint (higher = more stable) [6]: 5.2 M | unfolding free energy [6]: 6.09 kcal/mol | denaturant m value [7]: 1.17 kcal/mol/M | denaturant midpoint (higher = more stable) [7]: 5.2 M | unfolding free energy [7]: 6.09 kcal/mol | Tm [6]: 50.8 °C | unfolding enthalpy (van 't Hoff) [6]: 96.6 kcal/mol | Tm [8]: 50.8 °C | unfolding enthalpy (van 't Hoff) [8]: 96.6 kcal/mol
